Experimental findings from the Immune Epitope Database (IEDB) are described below.

Among the targets are HLA-A*03:01; HLA-A*31:01; HLA-A*11:01; HLA-A*33:01; HLA-A*68:01.
Test in all cases: IEDB peptide-MHC binding, purified MHC/competitive/radioactivity; filed as Kd, often an IC50 or EC50 that approximates it; ≥ and ≤ were set here for values at or beyond the usual limits of such assays
[1] abbreviates: source organism: SARS coronavirus Tor2.
The mark [2] stands for this setting: source organism: Mammarenavirus lassaense.
Where [3] appears, read: source organism: Vaccinia virus WR.
Where [4] appears, read: source organism: Mammarenavirus juninense.
Where [5] appears, read: source organism: Vaccinia virus Copenhagen.

Consider SLTSLLKTHR, for which the Kd amounted to 1.45 µM with HLA-A*03:01 (setting [1]); 0.105 µM with HLA-A*31:01 (setting [1]); 1.23 µM in the assay with HLA-A*11:01 (setting [1]); 0.804 µM in the assay with HLA-A*33:01 (setting [1]); 0.698 µM with HLA-A*68:01 (setting [1]).
With TCQGSDDIK, the dissociation constant (Kd) was at least 78 µM with HLA-A*03:01 (setting [2]); 5.09 µM in the assay with HLA-A*31:01 (setting [2]); 16.5 µM in the assay with HLA-A*11:01 (setting [2]); 2.84 µM with HLA-A*33:01 (setting [2]); 7.39 µM in the assay with HLA-A*68:01 (setting [2]).
Take VLTSEEVVLK: the Kd was 7.47 µM in the assay with HLA-A*03:01 (setting [1]); at least 70 µM with HLA-A*31:01 (setting [1]); 0.966 µM with HLA-A*11:01 (setting [1]); at least 70 µM in the assay with HLA-A*33:01 (setting [1]); 2.1 µM with HLA-A*68:01 (setting [1]).
Take ETSPGEIKPK: the Kd was at least 35 µM with HLA-A*03:01 (setting [3]); at least 70 µM in the assay with HLA-A*31:01 (setting [3]); 1.52 µM with HLA-A*11:01 (setting [3]); at least 61.9 µM with HLA-A*33:01 (setting [3]); 0.0475 µM with HLA-A*68:01 (setting [3]).
The corresponding values for RQILDNAAK are 0.117 µM, 1.11 µM, 0.144 µM, at least 77.7 µM and at least 35.3 µM.
As to RNPYENLLYK, the Kd in the assay with HLA-A*03:01 (setting [4]) was 2.47 µM; with HLA-A*31:01 (setting [4]), 4.76 µM; with HLA-A*11:01 (setting [4]) it was 0.628 µM; in the assay with HLA-A*33:01 (setting [4]), at least 35.9 µM; with HLA-A*68:01 (setting [4]), 12.6 µM.
For the sequence NLTDTNFKK, the Kd was 1.22 µM with HLA-A*03:01 (setting [3]); 9.07 µM with HLA-A*31:01 (setting [3]); 0.658 µM with HLA-A*11:01 (setting [3]); 4.43 µM in the assay with HLA-A*33:01 (setting [3]); 0.027 µM with HLA-A*68:01 (setting [3]).
The corresponding values for SSLRREHIK are 1.07 µM, 0.0897 µM, 0.27 µM, at least 37.1 µM and 14 µM.
For RALKAYFTAK, the Kd with HLA-A*03:01 (setting [3]) was 0.0124 µM; with HLA-A*31:01 (setting [3]), 0.0388 µM; with HLA-A*11:01 (setting [3]), 0.0265 µM; with HLA-A*33:01 (setting [3]), 16 µM; in the assay with HLA-A*68:01 (setting [3]) it was 1.95 µM.
As to KVVDTFISY, the dissociation constant (Kd) with HLA-A*03:01 (setting [3]) was found to be 0.0079 µM; with HLA-A*31:01 (setting [3]), 1.17 µM; with HLA-A*11:01 (setting [3]), 0.00498 µM; with HLA-A*33:01 (setting [3]), 12.3 µM; with HLA-A*68:01 (setting [3]), 3.38 µM.
For the sequence RVIWMDAYK, the Kd in the assay with HLA-A*03:01 (setting [5]) is 0.00403 µM; in the assay with HLA-A*31:01 (setting [5]) it was 0.00105 µM; in the assay with HLA-A*11:01 (setting [5]), 0.000793 µM; with HLA-A*33:01 (setting [5]), 4.82 µM; with HLA-A*68:01 (setting [5]), 0.000827 µM.
Regarding VTCAAYYFMK, the Kd was 0.0127 µM with HLA-A*03:01 (setting [1]); 0.199 µM with HLA-A*31:01 (setting [1]); 0.00693 µM in the assay with HLA-A*11:01 (setting [1]); 2.62 µM with HLA-A*33:01 (setting [1]); 0.0492 µM with HLA-A*68:01 (setting [1]).
The corresponding values for IMASLVLAR are 0.0106 µM, 0.018 µM, 0.104 µM, 0.56 µM and 0.0284 µM.
Consider RVRRYQIAQY, for which the Kd with HLA-A*03:01 (setting [3]) is 0.0206 µM; with HLA-A*31:01 (setting [3]) it was 2.44 µM; with HLA-A*11:01 (setting [3]) it was at least 25.5 µM; with HLA-A*33:01 (setting [3]), at least 70 µM; with HLA-A*68:01 (setting [3]), 6.34 µM.
KAIEKDRLDK: the Kd with HLA-A*03:01 (setting [3]) is 12.6 µM; with HLA-A*31:01 (setting [3]), at least 21.8 µM; with HLA-A*11:01 (setting [3]), 1.2 µM; in the assay with HLA-A*33:01 (setting [3]), at least 70 µM; in the assay with HLA-A*68:01 (setting [3]), 4.73 µM.
For the sequence RQLFKPLTK, the Kd with HLA-A*03:01 (setting [1]) was 0.0922 µM; with HLA-A*31:01 (setting [1]), 2.38 µM; with HLA-A*11:01 (setting [1]), 0.662 µM; with HLA-A*33:01 (setting [1]) it was at least 77.7 µM; in the assay with HLA-A*68:01 (setting [1]), at least 77.7 µM.
As for FVFPLNSKVK, the dissociation constant Kd with HLA-A*03:01 (setting [1]) came out at 0.164 µM; in the assay with HLA-A*31:01 (setting [1]) it was 12.8 µM; in the assay with HLA-A*11:01 (setting [1]), 0.113 µM; with HLA-A*33:01 (setting [1]), 16.7 µM; with HLA-A*68:01 (setting [1]), 0.00876 µM.
In the case of ESIEDKFDY, the Kd with HLA-A*03:01 (setting [3]) was 7.53 µM; with HLA-A*31:01 (setting [3]), at least 34.5 µM; in the assay with HLA-A*11:01 (setting [3]), 11.3 µM; with HLA-A*33:01 (setting [3]), at least 77.7 µM; with HLA-A*68:01 (setting [3]) it was 1.72 µM.

As usually defined, the Kd is the concentration at which binding is half-saturated.
